Patent publication US20040106545A1 (MCGILL UNIVERSITY, published 2004)
Positions of bridges follow the written chain, without caps; N, C: chain ends.

T1: chick N-cadherin expressed on transfected 3T3 cells (chick, UniProt P10288 165-912)
T1 sequence (looked up): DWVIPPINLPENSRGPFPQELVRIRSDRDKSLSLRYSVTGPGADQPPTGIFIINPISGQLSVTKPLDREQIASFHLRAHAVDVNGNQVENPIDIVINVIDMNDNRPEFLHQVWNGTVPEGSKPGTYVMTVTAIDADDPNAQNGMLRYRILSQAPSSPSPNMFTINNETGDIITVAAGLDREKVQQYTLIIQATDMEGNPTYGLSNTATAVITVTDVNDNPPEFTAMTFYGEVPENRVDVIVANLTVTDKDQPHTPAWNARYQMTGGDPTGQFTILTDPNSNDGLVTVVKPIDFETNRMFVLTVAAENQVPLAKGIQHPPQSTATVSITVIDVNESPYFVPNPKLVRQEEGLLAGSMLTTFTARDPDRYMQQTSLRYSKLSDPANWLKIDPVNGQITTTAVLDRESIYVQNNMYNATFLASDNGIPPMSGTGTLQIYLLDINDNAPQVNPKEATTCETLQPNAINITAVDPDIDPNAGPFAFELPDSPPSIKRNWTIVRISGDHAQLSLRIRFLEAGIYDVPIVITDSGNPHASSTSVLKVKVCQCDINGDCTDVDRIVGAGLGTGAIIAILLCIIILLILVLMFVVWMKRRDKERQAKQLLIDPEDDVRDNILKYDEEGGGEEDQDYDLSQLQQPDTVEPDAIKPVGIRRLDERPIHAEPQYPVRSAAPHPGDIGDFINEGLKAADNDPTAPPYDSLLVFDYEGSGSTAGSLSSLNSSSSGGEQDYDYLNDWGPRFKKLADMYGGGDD

B1: N-Ac-S-CHAVC-S-NH2 (peptide)
peptide: Ac-SCHAVCS-NH2
modifications: disulfide 2-6
SMILES: CC(=O)N[C@@H](CO)C(=O)N[C@H]1CSSC[C@@H](C(=O)N[C@@H](CO)C(N)=O)NC(=O)[C@H](C(C)C)NC(=O)[C@H](C)NC(=O)[C@H](Cc2c[nH]cn2)NC1=O
B2: N-Ac-CSHGVSC-NH2 (peptide)
peptide: Ac-CSHGVSC-NH2
modifications: disulfide 1-7
SMILES: CC(=O)N[C@H]1CSSC[C@@H](C(N)=O)NC(=O)[C@H](CO)NC(=O)[C@H](C(C)C)NC(=O)CNC(=O)[C@H](Cc2c[nH]cn2)NC(=O)[C@H](CO)NC1=O
B3: N-Ac-CSHAVSC-NH2 (peptide)
peptide: Ac-CSHAVSC-NH2
modifications: disulfide 1-7
SMILES: CC(=O)N[C@H]1CSSC[C@@H](C(N)=O)NC(=O)[C@H](CO)NC(=O)[C@H](C(C)C)NC(=O)[C@H](C)NC(=O)[C@H](Cc2c[nH]cn2)NC(=O)[C@H](CO)NC1=O
B4: N-Ac-CSHAVSSC-NH2 (peptide)
peptide: Ac-CSHAVSSC-NH2
modifications: disulfide 1-8
SMILES: CC(=O)N[C@H]1CSSC[C@@H](C(N)=O)NC(=O)[C@H](CO)NC(=O)[C@H](CO)NC(=O)[C@H](C(C)C)NC(=O)[C@H](C)NC(=O)[C@H](Cc2c[nH]cn2)NC(=O)[C@H](CO)NC1=O
B5: N-Ac-CSHGVSSC-NH2 (peptide)
peptide: Ac-CSHGVSSC-NH2
modifications: disulfide 1-8
SMILES: CC(=O)N[C@H]1CSSC[C@@H](C(N)=O)NC(=O)[C@H](CO)NC(=O)[C@H](CO)NC(=O)[C@H](C(C)C)NC(=O)CNC(=O)[C@H](Cc2c[nH]cn2)NC(=O)[C@H](CO)NC1=O
B6: N-Ac-CSHGVC-NH2 (peptide)
peptide: Ac-CSHGVC-NH2
modifications: disulfide 1-6
SMILES: CC(=O)N[C@H]1CSSC[C@@H](C(N)=O)NC(=O)[C@H](C(C)C)NC(=O)CNC(=O)[C@H](Cc2c[nH]cn2)NC(=O)[C@H](CO)NC1=O

target: T1, chick N-cadherin expressed on …; experiment: cell-based or functional assay

Percent Inhibition of N-cadherin dependent neurite outgrowth (peptide 250 µg/ml) [%] | Binder
15.7 | B1

target: N-cadherin expressed on transfected 3T3 cells (Examples 2 and 21); experiment: cell-based or functional assay

% Inhibition of neurite outgrowth, 250 µg/mL (rat neurons) [%] | Binder
0 | H-CAHGVDIC-NH2 (disulfide 1-8 (inferred)) [H-CAHGVDIC-NH2]
0 | Ac-CHGVSSC-NH2 (disulfide 1-7 (inferred)) [N-Ac-CHGVSSC-NH2]
0 | Ac-CLRAHGVC-NH2 (disulfide 1-8 (inferred)) [N-Ac-CLRAHGVC-NH2]
0 | B2
60 | Ac-CLRAHAVDC-NH2 (disulfide 1-9 (inferred)) [N-Ac-CLRAHAVDC-NH2]
0 | Ac-CHAVSC-NH2 (disulfide 1-6 (inferred)) [N-Ac-CHAVSC-NH2]
0 | Ac-CRAHGVDC-NH2 (disulfide 1-8 (inferred)) [N-Ac-CRAHGVDC-NH2]
0 | B3
0 | Ac-CRAHAVDC-NH2 (disulfide 1-8 (inferred)) [N-Ac-CRAHAVDC-NH2]
82 | Ac-CAHAVDIC-NH2 (disulfide 1-8 (inferred)) [N-Ac-CAHAVDIC-NH2]
0 | Ac-CLRAHGVDC-NH2 (disulfide 1-9 (inferred)) [N-Ac-CLRAHGVDC-NH2]
0 | Ac-CLRAHAVC-NH2 (disulfide 1-8 (inferred)) [N-Ac-CLRAHAVC-NH2]
0 | H-KHGVD-NH2 (lactam 1-5 (inferred)) [H-KHGVD-NH2]
0 | Ac-CHGVC-NH2 (disulfide 1-5 (inferred)) [N-Ac-CHGVC-NH2]
0 | Ac-CHAVSSC-NH2 (disulfide 1-7 (inferred)) [N-Ac-CHAVSSC-NH2]
51 | Ac-CAHAVC-NH2 (disulfide 1-6 (inferred)) [N-Ac-CAHAVC-NH2]
0 | Ac-KHGVD-NH2 (lactam 1-5 (inferred)) [N-Ac-KHGVD-NH2]
0 | Ac-CHGVSC-NH2 (disulfide 1-6 (inferred)) [N-Ac-CHGVSC-NH2]
0 | B4
0 | H-CHGVC-NH2 (disulfide 1-5 (inferred)) [H-CHGVC-NH2]
0 | H-CAHGVDC-NH2 (disulfide 1-7 (inferred)) [H-CAHGVDC-NH2]
0 | Ac-CAHGVC-NH2 (disulfide 1-6 (inferred)) [N-Ac-CAHGVC-NH2]
0 | Ac-CHGVDC-NH2 (disulfide 1-6 (inferred)) [N-Ac-CHGVDC-NH2]
0 | B5
0 | Ac-CAHGVDIC-NH2 (disulfide 1-8 (inferred)) [N-Ac-CAHGVDIC-NH2]
0 | H-KHAVD-NH2 (lactam 1-5 (inferred)) [H-KHAVD-NH2]
0 | Ac-KHAVD-NH2 (lactam 1-5 (inferred)) [N-Ac-KHAVD-NH2]
0 | B6

target: T1, chick N-cadherin expressed on …; experiment: cell-based or functional assay; remark: another data set of the same source

% inhibition of N-cadherin dependent neurite outgrowth (peptide 250 µg/mL) [%] | Binder
4 | Ac-CAHGVDC-NH2 (disulfide 1-7 (inferred)) [N-Ac-CAHGVDC-NH2]
7.2 | H-CAHGVDIC-NH2 (disulfide 1-8 (inferred)) [H-CAHGVDIC-NH2]
14.8 | Ac-CHGVSSC-NH2 (disulfide 1-7 (inferred)) [N-Ac-CHGVSSC-NH2]
-0.5 | Ac-CLRAHGVC-NH2 (disulfide 1-8 (inferred)) [N-Ac-CLRAHGVC-NH2]
10.8 | B2
76.3 | Ac-CLRAHAVDC-NH2 (disulfide 1-9 (inferred)) [N-Ac-CLRAHAVDC-NH2]
-2.5 | Ac-CHAVSC-NH2 (disulfide 1-6 (inferred)) [N-Ac-CHAVSC-NH2]
-8 | Ac-CRAHGVDC-NH2 (disulfide 1-8 (inferred)) [N-Ac-CRAHGVDC-NH2]
8.3 | B3
-5 | Ac-CRAHAVDC-NH2 (disulfide 1-8 (inferred)) [N-Ac-CRAHAVDC-NH2]
89.4 | Ac-CAHAVDIC-NH2 (disulfide 1-8 (inferred)) [N-Ac-CAHAVDIC-NH2]
-6.8 | Ac-CLRAHGVDC-NH2 (disulfide 1-9 (inferred)) [N-Ac-CLRAHGVDC-NH2]
9.9 | Ac-CLRAHAVC-NH2 (disulfide 1-8 (inferred)) [N-Ac-CLRAHAVC-NH2]
4.8 | Ac-CHGVC-NH2 (disulfide 1-5 (inferred)) [N-Ac-CHGVC-NH2]
34.4 | Ac-CHAVSSC-NH2 (disulfide 1-7 (inferred)) [N-Ac-CHAVSSC-NH2]
58.5 | Ac-CAHAVC-NH2 (disulfide 1-6 (inferred)) [N-Ac-CAHAVC-NH2]
-6.7 | Ac-CHGVSC-NH2 (disulfide 1-6 (inferred)) [N-Ac-CHGVSC-NH2]
13.3 | Ac-CAHAVDC-NH2 (disulfide 1-7 (inferred)) [N-Ac-CAHAVDC-NH2]
-12.6 | B4
7.8 | H-CHGVC-NH2 (disulfide 1-5 (inferred)) [H-CHGVC-NH2]
5.7 | H-CAHGVDC-NH2 (disulfide 1-7 (inferred)) [H-CAHGVDC-NH2]
-6.4 | Ac-CAHGVC-NH2 (disulfide 1-6 (inferred)) [N-Ac-CAHGVC-NH2]
-8.6 | Ac-CHGVDC-NH2 (disulfide 1-6 (inferred)) [N-Ac-CHGVDC-NH2]
-5.6 | B5
4.8 | Ac-CAHGVDIC-NH2 (disulfide 1-8 (inferred)) [N-Ac-CAHGVDIC-NH2]
12.5 | B6

target: T1, chick N-cadherin expressed on …; experiment: cell-based or functional assay; remark: another data set of the same source

% inhibition of neurite outgrowth (peptide 125 µg/mL) [%] | EC50 for inhibition of neurite outgrowth [µM] | Binder
58 | 185 | Ac-CHAVPC-NH2 (disulfide 1-6 (inferred)) [N-Ac-CHAVPC-NH2]
1.5 | – | Ac-CHAVDINGC-NH2 (disulfide 1-9 (inferred)) [N-Ac-CHAVDINGC-NH2]
